These results are taken from patent US20210269772A1, “COMPOSITIONS AND METHODS RELATED TO APTAMER-BASED REVERSIBLE CELL SELECTION” (UNIVERSITY OF WASHINGTON, published 2021).

Data set [1] addresses CD8 alpha (CD8a) on CD8+ T cells / PBMC (Homo sapiens, UniProt P01732 P01732:22-235). In words: flow; apparent Kd on CD8+ T cells, 4 C, 5.5 mM Mg; binding reduced 73-77% by CD8a siRNA. The settings on record: label: 5'-FAM (cells); biotin (BLI).
Data set [2] has as its target CD8 alpha (CD8a) extracellular domain (Homo sapiens, UniProt P01732 P01732:22-182). In words: BLI; 25 C, 5.5 mM Mg, tRNA, BSA, 0.01% tween-20. Conditions: tags: Sino Biological; label: 5'-FAM (cells); biotin (BLI). As to the method:
The observed differences in binding affinity values determined by the two methods is expected. Mass transport limitations not present with BLI but present when staining cells in static wells will favor re-binding and thereby limit dissociation, improving the apparent KD of the faster dissociating A3 relative to the other aptamers.
BLI studies were conducted on a ForteBio Octet Red96 instrument at 25° C. with sample agitation at 1000 rpm. The sample buffer used for all steps was comprised of binding buffer with 0.01% tween-20. Streptavidin-coated biosensors were loaded with 50nM biotinylated aptamer until all sensors (except for the reference) reached a capture threshold of 0.5 nm. After a 100 second rinse and baseline steps in buffer alone, sensors were exposed to a 1:3 dilution series of recombinant human CD8a protein (Sino Biological) ranging from 150nM to 5.56nM. Association with protein was monitored for 1200 sec, and dissociation was carried out for 600 second in buffer alone. Data analysis was carried out using Octet Data Analysis 9.0 software (ForteBio). Kinetic constants were calculated by conducting a global fit of the several processed association and dissociation curves from the protein dilution series to a 1:1 binding model. The quality of the fit was evaluated by the R2 and χ2 values.
Background: In BLI a coated tip is dipped into the sample, and binding shifts an interference pattern.

Sequence of CD8 alpha (CD8a) on CD8+ T cells / PBMC (P01732 22-235, one chain of several): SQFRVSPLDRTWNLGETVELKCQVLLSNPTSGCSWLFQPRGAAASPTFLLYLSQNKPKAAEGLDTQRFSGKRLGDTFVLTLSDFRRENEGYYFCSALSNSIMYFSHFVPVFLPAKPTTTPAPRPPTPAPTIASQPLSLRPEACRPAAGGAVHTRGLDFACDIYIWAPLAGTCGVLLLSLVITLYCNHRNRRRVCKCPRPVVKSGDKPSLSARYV
Sequence of CD8 alpha (CD8a) extracellular domain (P01732 22-182, one chain of several): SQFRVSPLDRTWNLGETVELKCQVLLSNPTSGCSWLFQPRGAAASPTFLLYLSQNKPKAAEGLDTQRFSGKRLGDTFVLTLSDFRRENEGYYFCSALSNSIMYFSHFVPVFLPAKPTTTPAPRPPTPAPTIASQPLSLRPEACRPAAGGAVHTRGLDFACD

B1: A3 (ssDNA)
DNA: ATCCAGAGTGACGCAGCAACAGAGGTGTAGAAGTACACGTGAACAAGCTTGAAATTGTCTCTGACAGAGGTGGACACGGTGGCTTAGT
For B1, the Kd in data set [1] was 1.9 nM.

B2: A8 (ssDNA)
DNA: ATCCAGAGTGACGCAGCAGCTCGATCGTATAGCCGTGACGCAGCTTGAAATGGGATCGCGTCCACAGTTTTGGACACGGTGGCTTAGT
Regarding B2, in data set [1], the Kd worked out at 2.4 nM.

B3: A1 (ssDNA)
DNA: ATCCAGAGTGACGCAGCACGCAGCACCCGTGGTAGTGTATCAGGGAGACACTACGTGATGCAGCTTGAAATGGACACGGTGGCTTAGT
For B3, the Kd in data set [2] was found to be 20.1 nM; in data set [1], 18.3 nM.
